Changes are numbered by the printed parent chain.
B1: 单域抗体2B1 (VHH)
VHH: ESGGGSVQSGGSLRLSCQASGYTSSSYCMGWFRQVPGKEREGVASIDSGGFTHTANSVKGRFTISQDNAKNTLYLQMNSLKPEDTAMYYCAATPREFGWCSLSGHFNYWGQGTQVTVSS
notes: Crude extract from E. coli TG1 clones (pMECS), detected through an HA tag
B2: 单域抗体2B8 (VHH)
VHH: ESGGGSVQAGGSLRLSCAASGYTFSTYCMAWFRQAPGEEREGVAYIDTDGSTGHADSVRGRFTVSRDNAKNTLYLQMNSLKPEDTAIYYCAARWTRLCGWWSYPTGSWGQGTQVTVSS
notes: as for B1
B3: 单域抗体1E9 (VHH)
VHH: ESGGGSVQSGGSLRLSCTVFGATFNGHAMAWFRQAPGKDREGVSCISMSGRSTAYADSVKGRFTISRDNAKNTLYLQMNGLKPEDTAMYYCAAAAFGYCSGPWSSSHGEYMYWGQGTQVTVSS
notes: as for B1
B4: 单域抗体1H10 (VHH)
VHH: B3 VHH with S6L, S9A
notes: as for B1
B5: 单域抗体4A5 (VHH)
VHH: ESGGGLVQPGGSLRLSCTVSGLTFNDYALAWFRQAPGKDREGVSCISWSGGSTAYADSVKGRFTISRDNAKNTVYLQMNSLKPEDTAMYYCAAPAFRYCSGPWSSSHGEYIYWGQGTQVTVSS
notes: as for B1

Biological target: T1, 人源TNFα重组胞外结构域蛋白 (human, UniProt P01375 57-233)
T1 construct: range 57-233; No purification tag is described; also called 人源重组TNFα蛋白; TNFα蛋白
Assay: ELISA of crude VHH extract on coated TNFα, anti-HA-HRP; positive if OD above 5 times the control well

T1 sequence (P01375 57-233 limits assumed): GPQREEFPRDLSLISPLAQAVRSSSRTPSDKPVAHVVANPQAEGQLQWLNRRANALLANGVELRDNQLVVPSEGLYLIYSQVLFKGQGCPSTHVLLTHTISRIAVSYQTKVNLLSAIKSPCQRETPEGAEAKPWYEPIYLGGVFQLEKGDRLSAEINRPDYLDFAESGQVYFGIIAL

binding result	Binder
binds	B1
binds	B2
binds	B3
binds	B4
binds	B5

From patent publication CN114591432A (NANJING FUJIEKANG BIOTECHNOLOGY CO LTD, dated 2022)
